Test results as given in article PMC12455589, “Abundant bacterial nucleoid-associated protein H-NS limits plasmid transfer through mechanical modification of DNA”.

Target: T1, H-NS (Escherichia coli, UniProt P0ACF8 1-137)
T1 sequence: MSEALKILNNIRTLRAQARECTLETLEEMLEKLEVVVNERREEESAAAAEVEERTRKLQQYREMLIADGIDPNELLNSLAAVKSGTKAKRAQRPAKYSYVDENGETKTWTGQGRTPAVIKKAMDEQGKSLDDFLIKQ
Experiment: EMSA; 0-80 ng/uL protein; 10 mM Mg2+; EMSA: 10 mM Tris-HCl pH 7.9, 125 mM KCl, 10 mM MgCl2, 0.1 mM DTT, 2.5% glycerol, 30 min, room temperature; bridging: 20 mM Tris-HCl pH 7.4, 150 mM NaCl, 1 mM DTT, 5% glycerol, 0.05% Tween 20, room temperature
Settings: protein: recombinant; tags: His6 (N-terminal); chain copies: 2; blunt

B1: HBS dsDNA probe (P21/P22) (dsDNA)
DNA 1: TAATTATTATAACTAAAAGTTTCTTTAATAATAAAACGAATAACTTGCAGATTTGAAAT
DNA 2: ATTTCAAATCTGCAAGTTATTCGTTTTATTATTAAAGAAACTTTTAGTTATAATAATTA
  binding result: binds
